Measurements from paper PMC8146696, “Live-Cell Analysis of Human Cytomegalovirus DNA Polymerase Holoenzyme Assembly by Resonance Energy Transfer Methods” (Microorganisms, 2021).

B1: HCMV DNA polymerase catalytic subunit pUL54, C-terminal domain UL54(1125–1242) (domain or fragment)
chain: VSRSDAIDGTDDDADGGGVEESNRRGGEPAKKRARKPPSAVCNYEVAEDPSYVREHGVPIHADKYFEQVLKAVTNVLSPVFPGGETARKDKFLHMVLPRRLHLEPAFLPYSVKAHECC
notes: also called CFP-UL54(1125–1242); RLuc-UL54; source: HEK293T, transiently transfected, in cells; not shown: CFP (FRET) or RLuc (BRET), N-terminal, kept
B2: HCMV DNA polymerase processivity factor ppUL44, UL44(2–433), wild type (natural protein)
chain: DRKTRLSEPPTLALRLKPYKTAIQQLRSVIRALKENTTVTFLPTPSLILQTVRSHCVSKITFNSSCLYITDKSFQPKTINNSTPLLGNFMYLTSSKDLTKFYVQDISDLSAKISMCAPDFNMEFSSACVHGQDIVRESENSAVHVDLDFGVVADLLKWIGPHTRVKRNVKKAPCPTGTVQILVHAGPPAIKFILTNGSELEFTANNRVSFHGVKNMRINVQLKNFYQTLLNCAVTKLPCTLRIVTEHDTLLYVASRNGLFAVENFLTEEPFQRGDPFDKNYVGNSGKSRGGGGGGGSLSSLANAGGLHDDGPGLDNDLMNEPMGLGGLGGGGGGGGKKHDRGGGGGSGTRKMSSGGGGGDHDHGLSSKEKYEQHKITSYLTSKGGSGGGGGGGGGGLDRNSGNYFNDAKEESDSEDSVTFEFVPNTKKQKCG
notes: also called YFP-UL44; CFP-UL44; source: HEK293T, transiently transfected, in cells; YFP-UL44 also stably expressed in HEK293A (lentiviral transduction, puromycin); RLuc-UL44 also stably expressed in HEK293A clone 1B2 (G418); not shown: YFP (acceptor copy) or CFP (FRET donor copy) or RLuc (BRET donor copy), N-terminal, kept
B4: ppUL44 UL44(2–433) L86A/L87A (natural protein)
chain: DRKTRLSEPPTLALRLKPYKTAIQQLRSVIRALKENTTVTFLPTPSLILQTVRSHCVSKITFNSSCLYITDKSFQPKTINNSTPAAGNFMYLTSSKDLTKFYVQDISDLSAKISMCAPDFNMEFSSACVHGQDIVRESENSAVHVDLDFGVVADLLKWIGPHTRVKRNVKKAPCPTGTVQILVHAGPPAIKFILTNGSELEFTANNRVSFHGVKNMRINVQLKNFYQTLLNCAVTKLPCTLRIVTEHDTLLYVASRNGLFAVENFLTEEPFQRGDPFDKNYVGNSGKSRGGGGGGGSLSSLANAGGLHDDGPGLDNDLMNEPMGLGGLGGGGGGGGKKHDRGGGGGSGTRKMSSGGGGGDHDHGLSSKEKYEQHKITSYLTSKGGSGGGGGGGGGGLDRNSGNYFNDAKEESDSEDSVTFEFVPNTKKQKCG
notes: source: HEK293T, transiently transfected, in cells; not shown: YFP (acceptor copy) or CFP (FRET donor copy) or RLuc (BRET donor copy), N-terminal, kept
B5: ppUL44 UL44(2–433) I135A (natural protein)
chain: DRKTRLSEPPTLALRLKPYKTAIQQLRSVIRALKENTTVTFLPTPSLILQTVRSHCVSKITFNSSCLYITDKSFQPKTINNSTPLLGNFMYLTSSKDLTKFYVQDISDLSAKISMCAPDFNMEFSSACVHGQDAVRESENSAVHVDLDFGVVADLLKWIGPHTRVKRNVKKAPCPTGTVQILVHAGPPAIKFILTNGSELEFTANNRVSFHGVKNMRINVQLKNFYQTLLNCAVTKLPCTLRIVTEHDTLLYVASRNGLFAVENFLTEEPFQRGDPFDKNYVGNSGKSRGGGGGGGSLSSLANAGGLHDDGPGLDNDLMNEPMGLGGLGGGGGGGGKKHDRGGGGGSGTRKMSSGGGGGDHDHGLSSKEKYEQHKITSYLTSKGGSGGGGGGGGGGLDRNSGNYFNDAKEESDSEDSVTFEFVPNTKKQKCG
notes: source: HEK293T, transiently transfected, in cells; not shown: YFP (acceptor copy) or RLuc (BRET donor copy), N-terminal, kept

What was measured:
[1] = molecular target: ppUL44 UL44(2–433) Δloop (R165G/K167N/K168G) (human cytomegalovirus (HCMV)) (UniProt P16790); test: FRET or BRET; BRET saturation in living HEK293T cells; fixed RLuc donor plasmid, increasing YFP acceptor plasmid (0-500 ng); one-site hyperbola of BRET ratio against YFPnet/RLuc gives B50 (relative affinity)
[2] = molecular target: pUL54 C-terminal 20 aa C-terminal 20 aa (Human cytomegalovirus) (UniProt P08546); conditions: cited from earlier work
[3] = molecular target: UL44Δ290 1-290 (Human cytomegalovirus) (UniProt P16790); test: gel filtration; conditions: cited from earlier work
[4] = molecular target: ppUL44 UL44(2–433) ΔNLS (K428V/K429A/K431) (human cytomegalovirus (HCMV)) (UniProt P16790); test: FRET or BRET; BRET saturation in living HEK293T cells; fixed RLuc donor plasmid, increasing YFP acceptor plasmid (0-500 ng); one-site hyperbola of BRET ratio against YFPnet/RLuc gives B50 (relative affinity)
[5] = molecular target: B2; test: as above; conditions: partners not purified
[6] = molecular target: B4; test: as above; conditions: partners not purified
ppUL44 UL44(2–433) I135A = molecular target: B5; test: as above; conditions: partners not purified
[7] = molecular target: the molecule itself; test: FRET or BRET; BRET in monoclonal HEK293A lines (from clone 1B2) stably expressing both YFP-UL44 and RLuc-UL44
[8] = molecular target: the molecule itself; test: FRET or BRET; BRET at one donor/acceptor ratio in living HEK293T cells; RLuc fusion donor with or without YFP-UL44 acceptor, both transient; 48 h post transfection, cells in PBS, coelenterazine 5 uM
[9] = molecular target: the molecule itself; test: FRET or BRET; BRET saturation in living HEK293T cells; fixed RLuc donor plasmid, increasing YFP acceptor plasmid (0-500 ng); one-site hyperbola of BRET ratio against YFPnet/RLuc gives B50 (relative affinity)
[10] = molecular target: B1; test: FRET or BRET; BRET inhibition, system 1: HEK293T transiently expressing RLuc donor and YFP-UL44 acceptor at about 50% of BRETmax, with increasing amounts of pDESTnFLAG-UL44 or pDESTnFLAG-UL42; conditions: partners not purified

ppUL44 UL44(2–433) Δloop (R165G/K167N/K168G) (from UniProt P16790 2-433) (natural protein)
B50 [1]: 12.6

UL44Δ290 1-290 (from UniProt P16790)
Kd [2]: 700 nM
Kd [3]: 250 nM

ppUL44 UL44(2–433) ΔNLS (K428V/K429A/K431) (from UniProt P16790 2-433) (natural protein)
B50 [4]: 11.2

HCMV DNA polymerase catalytic subunit pUL54, C-terminal domain UL54(1125–1242) (from UniProt P08546 1125-1242) (domain or fragment)
B50 [4]: 15.1
B50 [1]: 34.4

B1
B50 [5]: 20
B50 [6]: 11.5
B50 (ppUL44 UL44(2–433) I135A): 81.2

B2
BRET ratio [7]: 0.17
BRET ratio [8]: 0.36 ± 0.1
B50 [9]: 19

B3: FLAG-tagged ppUL44 (natural protein)
chain: MDRKTRLSEPPTLALRLKPYKTAIQQLRSVIRALKENTTVTFLPTPSLILQTVRSHCVSKITFNSSCLYITDKSFQPKTINNSTPLLGNFMYLTSSKDLTKFYVQDISDLSAKISMCAPDFNMEFSSACVHGQDIVRESENSAVHVDLDFGVVADLLKWIGPHTRVKRNVKKAPCPTGTVQILVHAGPPAIKFILTNGSELEFTANNRVSFHGVKNMRINVQLKNFYQTLLNCAVTKLPCTLRIVTEHDTLLYVASRNGLFAVENFLTEEPFQRGDPFDKNYVGNSGKSRGGGGGGGSLSSLANAGGLHDDGPGLDNDLMNEPMGLGGLGGGGGGGGKKHDRGGGGGSGTRKMSSGGGGGDHDHGLSSKEKYEQHKITSYLTSKGGSGGGGGGGGGGLDRNSGNYFNDAKEESDSEDSVTFEFVPNTKKQKCG
notes: also called FLAG-UL44; pDESTnFLAG-UL44; source: HEK293T or HEK293A-derived cell lines, transiently transfected, in cells
percent inhibition of the RLuc-UL54/YFP-UL44 BRET ratio [10]: ~40%

B4
B50 [9]: 73.7

B5
B50 [9]: 25.5
